Molecular target: Myc-GluK2a (UniProt Q13002)
Assay: co-IP; HEK293T cells transfected with FLAG-parkin and Myc-GluK2a or its truncation mutants; 500 ug lysate, Myc, parkin or FLAG antibody overnight at 4 C, Protein A or G agarose, washes with 500 mM NaCl, 1% Triton X-100; also after activation with 10 mM glutamate

FLAG-parkin, sequence (O60260 whole entry, the tested form may be a part): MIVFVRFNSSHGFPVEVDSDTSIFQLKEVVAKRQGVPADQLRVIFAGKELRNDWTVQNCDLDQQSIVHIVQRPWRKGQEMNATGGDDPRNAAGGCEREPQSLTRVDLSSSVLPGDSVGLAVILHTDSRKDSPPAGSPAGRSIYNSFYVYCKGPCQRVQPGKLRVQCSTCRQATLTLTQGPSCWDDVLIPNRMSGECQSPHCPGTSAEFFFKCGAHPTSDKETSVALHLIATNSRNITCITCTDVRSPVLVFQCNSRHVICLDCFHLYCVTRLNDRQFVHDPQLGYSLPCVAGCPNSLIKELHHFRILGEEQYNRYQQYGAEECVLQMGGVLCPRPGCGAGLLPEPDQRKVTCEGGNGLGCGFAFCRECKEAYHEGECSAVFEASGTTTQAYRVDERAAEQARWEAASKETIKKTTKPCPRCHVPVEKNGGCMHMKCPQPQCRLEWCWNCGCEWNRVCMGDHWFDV
UniProt Q13002, sequence (Q13002 32-908): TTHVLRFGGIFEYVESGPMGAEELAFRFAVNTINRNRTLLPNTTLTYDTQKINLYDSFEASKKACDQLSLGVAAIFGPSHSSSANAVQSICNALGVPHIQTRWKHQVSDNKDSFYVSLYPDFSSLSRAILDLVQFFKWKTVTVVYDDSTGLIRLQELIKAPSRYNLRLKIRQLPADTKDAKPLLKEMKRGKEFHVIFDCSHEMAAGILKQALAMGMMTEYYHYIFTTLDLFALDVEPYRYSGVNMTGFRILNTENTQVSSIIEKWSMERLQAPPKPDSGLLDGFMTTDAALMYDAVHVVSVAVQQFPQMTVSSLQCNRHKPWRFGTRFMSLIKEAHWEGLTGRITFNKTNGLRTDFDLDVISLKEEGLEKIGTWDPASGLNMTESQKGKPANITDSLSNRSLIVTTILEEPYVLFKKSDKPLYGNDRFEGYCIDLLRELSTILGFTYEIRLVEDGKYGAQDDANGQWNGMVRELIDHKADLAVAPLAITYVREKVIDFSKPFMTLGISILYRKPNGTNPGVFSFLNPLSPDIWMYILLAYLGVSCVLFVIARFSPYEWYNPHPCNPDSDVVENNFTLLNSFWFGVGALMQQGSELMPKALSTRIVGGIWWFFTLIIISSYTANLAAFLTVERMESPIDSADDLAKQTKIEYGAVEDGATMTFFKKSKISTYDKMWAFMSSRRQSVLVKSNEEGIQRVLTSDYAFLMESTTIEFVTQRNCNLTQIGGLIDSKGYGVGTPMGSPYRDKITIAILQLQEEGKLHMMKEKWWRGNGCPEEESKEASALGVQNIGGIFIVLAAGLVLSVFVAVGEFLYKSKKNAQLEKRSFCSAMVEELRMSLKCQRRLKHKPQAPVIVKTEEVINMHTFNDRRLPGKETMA

“FLAG-parkin (from UniProt O60260 1-465) (enzyme)” was tested. Which co-immunoprecipitation after 10 mM glutamate, relative to untreated (fold of untreated) did it give?
The co-immunoprecipitation after 10 mM glutamate, relative to untreated (fold of untreated) was 2.7.

Source: PMC4218952
